The values below come from the FLAb antibody collection (doi:10.1101/2023.12.08.570889).

A word on the Kd: it is a measure of binding affinity in units of concentration.

B1: unnamed (protein)
chain 1: QVQLVQSGAEVKKPGASVKVSCKASGYTFTSSYINWVRQAPGQGLEWMGTINPVSGSTSYAQKFQGRVTMTRDTSISTAYMELSRLRSDDTAVYYCARSWGYFDVWGQGTLVTVSS
chain 2: QSALTQPASVSGSPGQSITISCTGTSSDVGSYNYVNWYQQHPGKAPKLMIYGVSKRPSGVSNRFSGSKSGNTASLTISGLQAEDEADYYCGTFAGGSYYGVFGGGTKLTVL
B2: unnamed (protein)
chain 1: QVQLVQSGAEVKKPGASVKVSCKASGYTFTSSYINWVRQAPGQGLEWMGTINPVSGSTSYAQKFQGRVTMTRDTSISTAYMELSRLRSDDTAVYYCARSGYADYWGQGTLVTVSS
chain 2: B1 chain 2
B3: unnamed (protein)
chain 1: B2 chain 1 with S99G, Y101D, A102F
chain 2: B1 chain 2
B4: unnamed (protein)
chain 1: B2 chain 1 with A102F
chain 2: B1 chain 2
B5: unnamed (protein)
chain 1: B2 chain 1 with S99N
chain 2: B1 chain 2
B6: unnamed (protein)
chain 1: B2 chain 1 with S99G, A102D
chain 2: B1 chain 2
B7: unnamed (protein)
chain 1: B2 chain 1 with A102M
chain 2: B1 chain 2
B8: unnamed (protein)
chain 1: B2 chain 1 with S99G
chain 2: B1 chain 2
B9: unnamed (protein)
chain 1: B2 chain 1 with S99G, Y101E, A102F
chain 2: B1 chain 2
B10: unnamed (protein)
chain 1: B2 chain 1 with S99Q, G100L, Y101T, A102L, Y104V
chain 2: B1 chain 2
B11: unnamed (protein)
chain 1: B2 chain 1 with S99G, A102F, Y104V
chain 2: B1 chain 2
B12: unnamed (protein)
chain 1: B2 chain 1 with S99G, Y101D, A102M
chain 2: B1 chain 2
B13: unnamed (protein)
chain 1: B2 chain 1 with T28R, Y33G, S55T, S57N, S99G, A102F
chain 2: B1 chain 2
B14: unnamed (protein)
chain 1: B2 chain 1 with S99G, A102V
chain 2: B1 chain 2
B15: unnamed (protein)
chain 1: B2 chain 1 with Y33H, S55T, S57N, S99G, A102F
chain 2: B1 chain 2
B16: unnamed (protein)
chain 1: B2 chain 1 with S99G, A102N
chain 2: B1 chain 2
B17: unnamed (protein)
chain 1: B2 chain 1 with S99G, A102T
chain 2: B1 chain 2
B18: unnamed (protein)
chain 1: B1 chain 1 with S99L, W100A, G101I, Y102G, F103D, D104S, V105Y
chain 2: B1 chain 2
B19: unnamed (protein)
chain 1: B2 chain 1 with S32T, Y33G, S55T, S57G, S99G, A102F
chain 2: B1 chain 2

Positions count from the first letter of the chain named.

For this assay, the target named is ACVR2B, Q13705. Briefly: Kd (SPR).
Chain of ACVR2B, Q13705 (Q13705 whole entry, looked up): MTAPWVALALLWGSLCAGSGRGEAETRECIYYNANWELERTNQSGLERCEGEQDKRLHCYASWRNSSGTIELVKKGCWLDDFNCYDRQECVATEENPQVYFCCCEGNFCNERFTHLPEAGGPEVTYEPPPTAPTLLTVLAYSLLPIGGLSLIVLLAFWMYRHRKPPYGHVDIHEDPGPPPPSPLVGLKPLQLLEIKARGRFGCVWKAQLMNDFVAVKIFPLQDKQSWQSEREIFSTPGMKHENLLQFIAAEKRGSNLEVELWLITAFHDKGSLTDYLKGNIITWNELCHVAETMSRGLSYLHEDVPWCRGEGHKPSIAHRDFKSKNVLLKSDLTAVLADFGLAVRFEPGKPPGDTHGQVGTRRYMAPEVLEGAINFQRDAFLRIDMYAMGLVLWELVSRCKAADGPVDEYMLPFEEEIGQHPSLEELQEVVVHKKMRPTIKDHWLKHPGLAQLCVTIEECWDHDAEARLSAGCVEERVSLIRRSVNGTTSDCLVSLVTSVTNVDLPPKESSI
B1 yielded a Kd of 106 nM.

Molecule B2 had a dissociation constant (Kd) of 41.9 nM.

The molecule B3 returned a dissociation constant Kd of 123 nM.

On to B4, for which the Kd worked out at 9.19 nM.

Molecule B5 returned an equilibrium dissociation constant (Kd) of 337 nM.

B6 gave a Kd of 42.6 nM.

B7 had a Kd of 6.37 nM.

Consider B8, for which the dissociation constant (Kd) is 76.7 nM.

In turn, B9 displayed a Kd of 704 nM.

B10 yielded an equilibrium dissociation constant (Kd) of 210 nM.

Turning to B11, the Kd was determined as 26.2 nM.

The molecule B12 showed a dissociation constant Kd of 162 nM.

B13 gave an equilibrium dissociation constant (Kd) of 292 nM.

Turning to B14, the Kd was 153 nM.

Consider B15, for which the Kd is 162 nM.

B16: the dissociation constant (Kd) amounted to 101 nM.

B17 had an equilibrium dissociation constant (Kd) of 101 nM.

Take B18: the Kd turned out to be 111 nM.

B19: the equilibrium dissociation constant (Kd) amounted to 234 nM.
